The text below walks through data of article PMC3723540, “A Moonlighting Enzyme Links Escherichia coli Cell Size with Central Metabolism” (PLoS Genetics, 2013).

Series [1] deals with the molecule itself. The series is described as follows: 90° angle light scattering; 5 µM FtsZ in polymerization buffer (50 mM MES, 2.5 mM MgCl2, 1 mM EGTA, 50 mM KCl, pH 6.5), assembly started with 1 mM GTP, 30°C.
Series [2] concerns the target FtsZ (tubulin-like cell division protein) of E. coli, untagged (E. coli) (UniProt P0A9A6).
Series [3] shares this target. This is another data set of the same source.

B1: FtsZ (tubulin-like cell division protein) of E. coli, untagged (natural protein, UniProt P0A9A6 1-383, looked up)
chain: MFEPMELTNDAVIKVIGVGGGGGNAVEHMVRERIEGVEFFAVNTDAQALRKTAVGQTIQIGSGITKGLGAGANPEVGRNAADEDRDALRAALEGADMVFIAAGMGGGTGTGAAPVVAEVAKDLGILTVAVVTKPFNFEGKKRMAFAEQGITELSKHVDSLITIPNDKLLKVLGRGISLLDAFGAANDVLKGAVQGIAELITRPGLMNVDFADVRTVMSEMGYAMMGSGVASGEDRAEEAAEMAISSPLLEDIDLSGARGVLVNITAGFDLRLDEFETVGNTIRAFASDNATVVIGTSLDPDMNDELRVTVVATGIGMDKRPEITLVTNKQVQQPVMDRYQQHGMAPLTQEQKPVAKVVNDNAPQTAKEPDYLDIPAFLRKQAD
notes: FtsZ, cell division protein of E. coli, in its native (untagged) form; also called E. coli FtsZ; source: untagged
Turning to B1, the binding result in series [1] is “binds”.

B2: OpgH^N (N-terminal cytoplasmic domain of the glucosyltransferase OpgH, residues 1-138) (domain or fragment)
chain: MNKTTEYIDAMPIAASEKAALPKTDIRAVHQALDAEHRTWAREDDSPQGSVKARLEQAWPDSLADGQLIKDDEGRDQLKAMPEAKRSSMFPDPWRTNPVGRFWDRLRGRDVTPRYLARLTKEEQESEQKWRTVGTIRR
For B2, in series [2], the reduction of FtsZ's GTP hydrolysis (regenerative coupled GTPase assay), 5 µM FtsZ, ratios FtsZ:OpgH^N of 1:1 (25%), 1:1.5 (55%) and 1:2 (84%); FtsZ alone 5.1 GTP/minute/FtsZ was 84%. In addition, in series [3], the apparent critical concentration (CcApp) of FtsZ for GTP hydrolysis at 0 µM (0.69 µM), 2.5 µM (1.31 µM), 5 µM (1.85 µM) and 10 µM OpgH^N (4.08 µM) amounted to 4.08 µM.
